From PMC5340296

Molecular target: YFP–CPR5 (translational fusion of the yellow fluorescent protein to CPR5) (Arabidopsis thaliana) (UniProt Q9LV85)
Assay: FRET or BRET

Sequence of UniProt Q9LV85 (Q9LV85 whole entry, the tested form may be a part): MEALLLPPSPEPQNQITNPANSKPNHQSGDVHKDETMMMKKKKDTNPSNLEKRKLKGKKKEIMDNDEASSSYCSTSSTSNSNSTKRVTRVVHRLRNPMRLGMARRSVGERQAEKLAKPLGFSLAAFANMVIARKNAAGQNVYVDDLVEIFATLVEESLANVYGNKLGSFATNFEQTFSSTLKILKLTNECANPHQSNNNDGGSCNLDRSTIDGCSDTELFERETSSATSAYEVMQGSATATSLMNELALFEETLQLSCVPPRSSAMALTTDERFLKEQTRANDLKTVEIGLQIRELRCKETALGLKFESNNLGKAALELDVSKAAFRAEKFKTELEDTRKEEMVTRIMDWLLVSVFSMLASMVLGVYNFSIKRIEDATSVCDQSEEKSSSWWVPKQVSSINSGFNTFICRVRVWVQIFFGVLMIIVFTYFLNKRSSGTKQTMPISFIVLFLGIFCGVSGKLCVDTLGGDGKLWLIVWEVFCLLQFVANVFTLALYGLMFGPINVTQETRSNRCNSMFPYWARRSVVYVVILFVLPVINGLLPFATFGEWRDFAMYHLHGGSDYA

FRET efficiency: 10%
Substance: CFP–sbZIP60 (cyan fluorescent protein fused to spliced full-length bZIP60) (natural protein)
